Assay results: US20250154237A1 (A AND G PHARMACEUTICAL, published 2025)

What was measured:
[1] = target: T1, human recombinant his-tagged full-length progranulin (human, UniProt P28799 18-593); assay: BLI OctetRed96, mAb captured on AHC sensors, huPGRN as analyte, 25 C; parameters: Response: unit not given here
T1 construct: mature; also called huPGRN; hu PGRN; not shown: his tag
T1 sequence (looked up): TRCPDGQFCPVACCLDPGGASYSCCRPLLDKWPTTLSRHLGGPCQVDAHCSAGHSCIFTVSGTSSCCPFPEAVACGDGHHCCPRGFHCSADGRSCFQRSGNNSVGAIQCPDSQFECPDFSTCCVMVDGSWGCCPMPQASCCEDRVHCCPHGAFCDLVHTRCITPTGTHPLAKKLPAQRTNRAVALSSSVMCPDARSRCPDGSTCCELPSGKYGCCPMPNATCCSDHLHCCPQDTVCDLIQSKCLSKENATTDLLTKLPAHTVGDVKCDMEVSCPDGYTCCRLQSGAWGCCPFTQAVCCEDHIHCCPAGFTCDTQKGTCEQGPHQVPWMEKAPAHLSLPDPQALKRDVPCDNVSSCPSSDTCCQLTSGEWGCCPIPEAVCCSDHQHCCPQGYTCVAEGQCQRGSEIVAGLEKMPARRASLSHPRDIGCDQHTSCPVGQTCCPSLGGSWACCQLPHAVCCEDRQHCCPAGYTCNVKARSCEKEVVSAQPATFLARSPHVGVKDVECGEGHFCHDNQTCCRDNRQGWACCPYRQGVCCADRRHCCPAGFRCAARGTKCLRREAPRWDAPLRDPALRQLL
Experimental: Determination of Binding Affinity by Octet. OctetRed96 BLI technology was used to examine the binding characteristics of selected fully human antibodies to progranulin. The method is briefly described herein. Assays were performed at 25° C. Pre-conditioning of the pre hydrated (1 hr) anti-human Fc capture (AHC) sensors was performed by repeating 3 cycles of dipping sensors in regeneration buffer followed by neutralizing buffer (PBS). Anti-progranulin mAbs were captured at 20 μg/ml for 360 seconds on pre-conditioned biosensors. Sensors were then dipped in baseline buffer similar to the progranulin diluent (PBS). Sensors were then dipped into progranulin-containing wells as indicated for 420 seconds. The dissociation step was carried out in assay buffer (PBS) for 600 seconds. The KD was determined based on Kₒₙ and Koff using the experimental conditions described above.

[2] = target: T1, human recombinant his-tagged …; assay: flow cytometry: progranulin binding to MDA-MB-231 cells with the antibody, % of hIgG control
Experimental: Progranulin Binding by Flow Cytometry. Binding assays were carried out on an […] Flow Cytometer using the instructions included therein. […] Out of the 45 mAbs assayed, 11 clones (shown in bold in Table 5) produced antibodies that were able to inhibit progranulin binding in a dose dependent fashion.

B1: 10B3 (antibody, V domains shown)
VH: QVQLVESGGGVVQPGRSLRLSCAASGFTLSGYGMHWVRQAPDKGLEWVAVIWYDGSDKNYADSVKGRFTISRDNSKNTLYLQMNSLRAEDTAVYYCARDRGAVAGDYWGQGTLVTVSS
VL: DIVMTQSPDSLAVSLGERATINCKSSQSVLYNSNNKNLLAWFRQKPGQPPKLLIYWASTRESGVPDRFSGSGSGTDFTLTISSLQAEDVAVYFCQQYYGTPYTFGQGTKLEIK
notes: Fully human mAb from TC-mAb mouse hybridoma; also called mAb 10B3
- Kd [1]: 0.136 nM
- Response [1]: 0.797
- koff [1]: 1.19e-05 s⁻¹
- kon [1]: 86800 M⁻¹ s⁻¹
- % Control [2]: 62%

B2: 14A6 (antibody, V domains shown)
VH: QVQLVESGGGVVQPGRSLRLSCAASGFTFSNYGMHWVRQAPGKGLEWVAVIWYDGSNKYYADSVKGRFTISRDNSKNTLYLQMNSLRAEDTAVYYCARGHSVSGGDYWGQGTLVTVSS
VL: DIQMTQSPSSLSASVGDRVTITCRASQSVNSFLNWYQQTPGKAPKLLIYAASSLQSGVPPRFSGSGSGTDFTLTISSLQPEDFATYYCQQSYSTPYTFGQGTKLEIN
notes: Fully human mAb from TC-mAb mouse hybridoma; also called mAb 14A6
- Kd [1]: 0.587 nM
- Response [1]: 0.64
- koff [1]: 2.95e-05 s⁻¹
- kon [1]: 50300 M⁻¹ s⁻¹
- % Control [2]: 116%

B3: 10C8 (antibody, V domains shown)
VH: QVQLVQSGAEVKKPGASVKVSCKASGYTLTSYGISWVRQAPGQGLEWMGWISAYNGNTNYAQKLQGRVTMTTDTSTSTAYMELRSLRSDDTAVYYCARELLWFGELLSQYYYYGMDVWGQGTTVTVSS
VL: DIQMTQSPSTLSASVGDRVTITCRASQNISRWLAWYQQKPGKAPKLLIFRASSLETGVPSRFGGSGSGTEFTLTISSLQPDDFATYYCQQYNSYYTFGQGTRLEIK
notes: Fully human mAb from TC-mAb mouse hybridoma; also called mAb 10C8
- Kd [1]: 0.00413 nM
- Response [1]: 0.89
- koff [1]: 5.38e-07 s⁻¹
- kon [1]: 130000 M⁻¹ s⁻¹
- % Control [2]: 55%

B4: 16C11 (antibody, V domains shown)
VH: QVQLVESGGGVVQPGRSLRLSCAASGFTFSSYAMHWVRQAPGKGLEWVAVIWYDGSKKYNADSVKGRFTISRDNSKNTLYLQMNSLRAEDTAVYYCARDRGIGGDYWGQGTLVTVSS
VL: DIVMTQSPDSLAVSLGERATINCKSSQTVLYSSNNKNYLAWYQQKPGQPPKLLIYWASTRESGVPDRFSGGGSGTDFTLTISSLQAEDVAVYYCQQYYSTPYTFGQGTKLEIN
notes: Fully human mAb from TC-mAb mouse hybridoma; also called mAb 16C11
- Kd [1]: 0.476 nM
- Response [1]: 0.932
- koff [1]: 7.21e-05 s⁻¹
- kon [1]: 152000 M⁻¹ s⁻¹
- % Control [2]: 60%
